Experiments:
[1] = biological target: mouse SNX5 PX domain (residues 20–180) (mouse) (UniProt Q9D8U8); experiment: SPR; Biacore T100; PX5 immobilised on a CM5 chip, GST-IncE 109-132 WT or mutants flowed over; 25 °C; 20 mM Na HEPES pH 7.5, 200 mM NaCl, 0.005% Triton-X100; 1:1 steady state analysis
[2] = biological target: mouse SNX5 PX domain (residues 20–180) (mouse) (UniProt Q9D8U8); experiment: SPR; Biacore T100; PX5 immobilised on a CM5 chip, IncE 109-132 peptide flowed over (33 nM-2.7 uM); 25 °C; 20 mM Na HEPES pH 7.5, 200 mM NaCl, 0.005% Triton-X100; 1:1 fitting model

Sequence of UniProt Q9D8U8 (Q9D8U8 20-180): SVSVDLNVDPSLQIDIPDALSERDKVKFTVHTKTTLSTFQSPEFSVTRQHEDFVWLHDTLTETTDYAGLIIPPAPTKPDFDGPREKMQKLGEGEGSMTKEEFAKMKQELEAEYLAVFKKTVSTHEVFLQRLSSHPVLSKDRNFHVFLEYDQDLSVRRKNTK

Substance	Kd [1]	Kd [2]
GST-IncE^109–132 K118A (domain or fragment)	790 nM	
GST-IncE^109–132 V127A (domain or fragment)	980 nM	
GST-IncE^109–132 WT (domain or fragment)	390 nM	
IncE^109–132 peptide		540 nM
